First the molecules themselves.
B1: recMoPrP(89–230) (domain or fragment)
chain: not shown
B2: recMoPrP(23–230) (natural protein)
chain: not shown
B3: recMoDpl(26–155) (domain or fragment, mouse, UniProt Q9QUG3 26-155, looked up)
chain: ARGIKHRFKWNRKVLPSSGGQITEARVAENRPGAFIKQGRKLDIDFGAEGNRYYAANYWQFPDGIYYEGCSEANVTKEMLVTSCVNATQAANQAEFSREKQDSKLHQRVLWRLIKEICSAKHCDFWLERG
notes: also called recDpl

Common to all, as to experiment: SPR; Biacore 2000, 20°C; […] (10 mM HEPES, 150 mM NaCl), pH 7.4, 20 µL/min; 1:1 (Langmuir) model
Holding throughout (conditions): both partners purified

The target in the assay “recMoDpl(26–155)” is B3.
The assay “recMoPrP(23–230)” addresses B2.
The target of the assay “recMoPrP(89–230)” is B1.

Turning to B1, the “stoichiometry N” value in the assay with recMoDpl(26–155) was found to be 1.
Same read-out and setting: as for B2, the figure is 1.
In the assay with recMoPrP(23–230), B3 showed a Kd of 11 nM, a dissociation rate constant (koff) of 0.0013 s⁻¹ and a kon of 120000 M⁻¹ s⁻¹. In the assay with recMoPrP(89–230), this molecule registered a Kd of 100 nM, a koff of 0.00087 s⁻¹ and a kon of 8400 M⁻¹ s⁻¹.

A word on the stoichiometry N: it is a count of units in the complex or per binding partner. For orientation: Kd means the constant that tells how readily two partners part at equilibrium. Low readings indicate a tighter complex, high ones a looser complex. The term koff denotes the rate constant with which the complex falls apart. Broadly, the kon is a measure of how fast the partners come together. A low value points to slower complex formation.

(Values after publication PMC2693666 (PLoS ONE, 2009).)
